Test results as given in IntAct's records for PubMed 20923837.

Columns and labels:
vps35_mouse Vps35 = vps35_mouse Vps35 (UniProt Q9EQH3)
tbcd5_human TBC1D5 = tbcd5_human TBC1D5 (UniProt Q92609)

Vacuolar protein sorting-associated protein 29 (Mus musculus) (from UniProt Q9QZ88) L152E
effect of a mutation on the interaction (vps35_mouse Vps35): with no effect | effect of a mutation on the interaction (tbcd5_human TBC1D5): disrupting interaction strength
